Assay [1] deals with T1, recombinant human matrilin-3 protein (human, UniProt O15232 29-486).
T1 construct: Bought from R&D Systems; It was biotinylated through an Avi tag for the library selection; also called human recombinant matrilin-3
T1 sequence: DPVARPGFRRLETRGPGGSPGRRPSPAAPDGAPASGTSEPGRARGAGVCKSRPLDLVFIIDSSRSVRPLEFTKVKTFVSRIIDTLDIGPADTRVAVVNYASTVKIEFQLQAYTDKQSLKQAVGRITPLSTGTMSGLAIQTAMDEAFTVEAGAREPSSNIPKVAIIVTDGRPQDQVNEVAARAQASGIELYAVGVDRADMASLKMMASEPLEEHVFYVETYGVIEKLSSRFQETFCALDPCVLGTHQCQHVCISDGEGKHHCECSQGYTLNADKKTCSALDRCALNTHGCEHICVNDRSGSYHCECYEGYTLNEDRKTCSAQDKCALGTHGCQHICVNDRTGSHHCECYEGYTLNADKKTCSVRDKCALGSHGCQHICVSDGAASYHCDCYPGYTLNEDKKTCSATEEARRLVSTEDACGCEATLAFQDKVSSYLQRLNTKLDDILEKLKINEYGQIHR
The assay can be described thus: ELISA, coated recombinant matrilin-3, purified scFv-Fc titrated 230 nM to 0.014 nM, HRP anti-Fc. (ELISA stands for enzyme-linked immunosorbent assay.)

Assay [2] has as its target T2, recombinant mouse matrilin-3 protein (mouse, UniProt O35701 28-481, limits assumed).
T2 construct: also called mouse recombinant matrilin-3; His-Tagged recombinant mouse matrilin-3
T2 sequence (looked up): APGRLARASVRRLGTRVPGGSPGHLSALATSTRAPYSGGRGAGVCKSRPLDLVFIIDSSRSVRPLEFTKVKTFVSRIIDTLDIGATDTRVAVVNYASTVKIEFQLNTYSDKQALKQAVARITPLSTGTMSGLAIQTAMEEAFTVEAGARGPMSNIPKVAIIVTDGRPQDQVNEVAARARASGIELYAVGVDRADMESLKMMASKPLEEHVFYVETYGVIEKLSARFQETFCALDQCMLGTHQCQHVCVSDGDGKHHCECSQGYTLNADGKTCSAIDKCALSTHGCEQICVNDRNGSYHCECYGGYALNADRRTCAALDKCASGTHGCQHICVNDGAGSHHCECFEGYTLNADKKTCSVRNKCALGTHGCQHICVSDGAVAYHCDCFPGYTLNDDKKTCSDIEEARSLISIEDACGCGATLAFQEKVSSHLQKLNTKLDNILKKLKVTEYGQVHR
The assay is described as above.

B1: matrilin-3-binding antibody fragment 13 (clone 13 scFv fused with human IgG1 Fc fragment) (Fc fusion)
scFv: LVQSGAEVKKPGASVKVSCKASGGTFSSYAISWVRQAPGQGLEWMGGIIPIFGTANYAQKFQGRVTITADKSTSTAYMELSSLRSEDTAVYYCARGQGYWFDPWGQGTLVTVSSGGGGSGGGASSGGGSDVQLTQSPSSLSASVGDRVTITCQASQDISNYLNWYQQKPGKAPKLLIYDASNLETGVPSRFSGSGSGTDFTFTISSLQPEDIATYYCQQYDNLPLTFGGGTKLEIK
notes: Tested as scFv-Fc (culture supernatant or protein A purified); not shown: human IgG1 Fc fragment encoded by the modified pSecTagB vector; Avi tag downstream of the Fc in the vector
As usually defined, the EC50 is the concentration needed to bring the measured effect to its halfway point. B1: the EC50 in assay [1] and in assay [2] was less than 1 nM throughout.

B2: matrilin-3-binding antibody fragment 22 (clone 22 scFv fused with human IgG1 Fc fragment) (Fc fusion)
scFv: LQQSGPGLVKPSQTLSLTCAISGDSVSSNSAAWNWIRQSPSRGLEWLGRTYYGSKWYNDYAPSVKSRISINPDTSKNQFSLQLNSVTPEDTAVYYCTRGIWNAFDIWGQGTMVTVSSGGGGSGGGASGGGGSSSELTQDPAVSVALGQTVRITCQGDSLRSYYASWYQQKPGQAPLLVIYDRDNRPSGIPDRFSGSSSGNTASLTITGAQAEDEADYYCQSYDTSLSWVFGGGTQLTVL
notes: Tested as scFv-Fc; not shown: human IgG1 Fc fragment encoded by the modified pSecTagB vector; Avi tag downstream of the Fc in the vector
As for B2, the concentration for a half-maximal effect (EC50) in assay [1] and in assay [2] was less than 1 nM each time.

The values above are taken from US20160340418A1 (US Dept. of Health and Human Services, published 2016).
